Measurements published in patent US20210179666A1 (REGENTS OF THE UNIVERSITY OF MINNESOTA, published 2021).
Read-outs that look alike come from different tables or passages of the source. Square brackets hold non-standard residues; d marks the D form. Dap = NC[C@H](N)C(=O)O

How the values were obtained:
[1] = target: T1, human melanocortin 4 receptor (human, UniProt P32245 1-332); assay: 125I-NDP-MSH competition; fold vs SEQ ID NO: 2 control
T1 construct: whole, on cells; the assays used the receptor on HEK293 cells; also called hMC4R
T1 sequence (P32245 whole entry): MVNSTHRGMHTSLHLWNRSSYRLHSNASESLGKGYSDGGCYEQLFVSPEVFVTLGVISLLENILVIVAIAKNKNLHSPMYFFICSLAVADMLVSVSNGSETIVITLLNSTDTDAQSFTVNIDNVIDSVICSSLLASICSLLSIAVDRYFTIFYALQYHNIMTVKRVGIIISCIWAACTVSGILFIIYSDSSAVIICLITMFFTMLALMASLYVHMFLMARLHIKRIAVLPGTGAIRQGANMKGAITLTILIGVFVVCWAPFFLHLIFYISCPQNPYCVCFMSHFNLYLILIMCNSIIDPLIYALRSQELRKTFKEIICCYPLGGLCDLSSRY

[2] = target: T1, human melanocortin 4 receptor; assay: cell-based or functional assay
[3] = target: T1, human melanocortin 4 receptor; assay: 125I-NDP-MSH competition, HEK293 cells
[4] = target: T2, mouse melanocortin 5 receptor (mouse, UniProt P41149 1-325); assay: 125I-NDP-MSH competition; fold vs SEQ ID NO: 2 control
T2 construct: whole, on cells; also called mMC5R; MC5R
T2 sequence (P41149 whole entry): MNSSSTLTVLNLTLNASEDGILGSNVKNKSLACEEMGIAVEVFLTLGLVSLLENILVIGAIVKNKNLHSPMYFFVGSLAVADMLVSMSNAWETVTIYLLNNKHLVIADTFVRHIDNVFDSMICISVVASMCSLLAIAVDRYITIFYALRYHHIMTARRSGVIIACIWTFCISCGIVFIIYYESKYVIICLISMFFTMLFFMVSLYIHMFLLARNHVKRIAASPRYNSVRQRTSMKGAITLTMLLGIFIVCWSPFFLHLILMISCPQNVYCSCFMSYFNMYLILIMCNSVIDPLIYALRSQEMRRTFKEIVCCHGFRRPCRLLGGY

[5] = target: T3, mouse melanocortin 4 receptor (mouse, UniProt P56450 1-332); assay: as above
T3 construct: whole, on cells; also called mMC4R; MC4R
T3 sequence (P56450 whole entry): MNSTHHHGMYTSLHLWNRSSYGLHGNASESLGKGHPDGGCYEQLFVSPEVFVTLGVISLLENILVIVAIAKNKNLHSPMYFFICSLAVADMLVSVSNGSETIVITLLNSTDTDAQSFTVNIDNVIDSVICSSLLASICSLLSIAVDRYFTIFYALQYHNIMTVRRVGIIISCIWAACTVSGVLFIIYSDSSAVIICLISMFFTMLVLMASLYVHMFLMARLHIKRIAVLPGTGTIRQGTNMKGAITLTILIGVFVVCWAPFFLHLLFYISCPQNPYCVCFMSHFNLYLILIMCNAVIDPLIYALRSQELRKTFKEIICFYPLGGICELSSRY

[6] = target: T4, mouse melanocortin 3 receptor (mouse, UniProt P33033 1-323); assay: as above
T4 construct: whole, on cells; also called mMC3R; MC3R
T4 sequence (P33033 whole entry): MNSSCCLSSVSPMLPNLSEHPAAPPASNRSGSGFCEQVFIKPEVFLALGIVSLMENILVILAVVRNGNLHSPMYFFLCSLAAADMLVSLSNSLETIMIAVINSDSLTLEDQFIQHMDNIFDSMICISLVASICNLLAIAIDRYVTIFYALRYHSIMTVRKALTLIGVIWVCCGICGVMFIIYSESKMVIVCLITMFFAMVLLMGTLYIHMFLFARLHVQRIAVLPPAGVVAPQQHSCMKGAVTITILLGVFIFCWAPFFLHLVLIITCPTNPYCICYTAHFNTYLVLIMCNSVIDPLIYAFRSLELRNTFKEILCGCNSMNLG

[7] = target: T5, mouse melanocortin 1 receptor (mouse, UniProt Q01727 1-315); assay: as above
T5 construct: whole, on cells; also called mMC1R; MC1R
T5 sequence (Q01727 whole entry): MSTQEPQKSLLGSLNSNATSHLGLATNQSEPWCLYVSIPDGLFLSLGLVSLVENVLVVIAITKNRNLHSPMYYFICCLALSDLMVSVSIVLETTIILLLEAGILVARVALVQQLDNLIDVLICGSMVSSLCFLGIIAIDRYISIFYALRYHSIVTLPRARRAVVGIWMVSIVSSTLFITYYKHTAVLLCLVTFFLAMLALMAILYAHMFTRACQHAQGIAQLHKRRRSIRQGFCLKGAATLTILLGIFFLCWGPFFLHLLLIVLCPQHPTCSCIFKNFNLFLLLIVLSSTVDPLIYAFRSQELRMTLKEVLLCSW

[8] = target: T2, mouse melanocortin 5 receptor; assay: cell-based or functional assay
[9] = target: T3, mouse melanocortin 4 receptor; assay: cell-based or functional assay
[10] = target: T4, mouse melanocortin 3 receptor; assay: cell-based or functional assay
[11] = target: T5, mouse melanocortin 1 receptor; assay: cell-based or functional assay
[12] = target: T2, mouse melanocortin 5 receptor; assay: 125I-NDP-MSH competition, HEK293 cells
[13] = target: T3, mouse melanocortin 4 receptor; assay: 125I-NDP-MSH competition, HEK293 cells
[14] = target: T4, mouse melanocortin 3 receptor; assay: 125I-NDP-MSH competition, HEK293 cells
[15] = target: T5, mouse melanocortin 1 receptor; assay: 125I-NDP-MSH competition, HEK293 cells
[16] = target: T2, mouse melanocortin 5 receptor; assay: 125I-NDP-MSH competition; fold vs SEQ ID NO: 1 control
[17] = target: T3, mouse melanocortin 4 receptor; assay: as above
[18] = target: T4, mouse melanocortin 3 receptor; assay: as above
[19] = target: T5, mouse melanocortin 1 receptor; assay: as above
[20] = target: T1, human melanocortin 4 receptor; assay: as above
[21] = target: T2, mouse melanocortin 5 receptor; assay: cell-based or functional assay; remark: listed apart in the source
[22] = target: T3, mouse melanocortin 4 receptor; assay: cell-based or functional assay; remark: listed apart in the source
[23] = target: T4, mouse melanocortin 3 receptor; assay: cell-based or functional assay; remark: listed apart in the source

Fold Diff [1]	pA2 (Schild analysis, agonist NDP-MSH, cAMP) [2]	IC50 [3]	Fold Diff [4]	Fold Diff [5]	Fold Diff [6]	Fold Diff [7]	EC50 (cAMP agonist) [8]	EC50 (cAMP agonist) [9]	pA2 (Schild analysis, agonist NDP-MSH, cAMP) [9]	EC50 (cAMP agonist) [10]	pA2 (Schild analysis, agonist NDP-MSH, cAMP) [10]	percent maximal stimulatory response at 100 µM (cAMP) [11]	IC50 [12]	IC50 [13]	IC50 [14]	IC50 [15]	pA2 (Schild analysis, agonist NDP-MSH, cAMP) [8]	Fold Diff [17]	Fold Diff [19]	other results	Binder
400 fold	6.4	2.7 µM	7 fold	500 fold	5 fold	5 fold	> 100 µM	> 100 µM	6	> 100 µM	5.4	56%	12 µM	1 µM	15 µM	25 µM	–	–	–	–	cyclo(PHFF[Dap]AF[dP]) (Arg111His SNP in the Dap scaffold; also called c[Pro-His-Phe-Phe-Dap-Ala-Phe-DPro]) [ZMK 2-99]
100 fold	7.5	1.02 µM	20 fold	70 fold	9 fold	4 fold	> 100 µM	> 100 µM	7.3	> 100 µM	6.5	48%	36 µM	0.134 µM	28 µM	18 µM	6.5	–	–	–	cyclo(PRYF[Dap]AF[dP]) (Phe112Tyr SNP in the Dap scaffold; also called c[Pro-Arg-Tyr-Phe-Dap-Ala-Phe-DPro]) [ZMK 2-112]
–	7.8	0.25 µM	–	–	–	–	> 100 µM	–	7.2	> 100 µM	5.9	23%	29 µM	0.038 µM	53 µM	15 µM	6.1	2 fold	2 fold	Fold Diff [16]: 2 fold; Fold Diff [18]: 3 fold; Fold Diff [20]: 3 fold; percent maximal stimulatory response at 100 µM (cAMP) [9]: 16%	cyclo(PRFFNVF[dP]) (Ala115Val SNP in the Asn scaffold; also called c[Pro-Arg-Phe-Phe-Asn-Val-Phe-DPro]) [ZMK 2-82]
–	5.8	19.3 µM	–	–	–	–	–	–	–	–	–	–	–	1.9 µM	–	24.6 µM	–	90 fold	3 fold	pA2 (Schild analysis, agonist NDP-MSH, cAMP) [21]: < 5; pA2 (Schild analysis, agonist NDP-MSH, cAMP) [22]: 5.9; pA2 (Schild analysis, agonist NDP-MSH, cAMP) [23]: < 5; Fold Diff [20]: 300 fold	cyclo(PCFFNAF[dP]) (Arg111Cys SNP in the Asn scaffold; also called c[Pro-Cys-Phe-Phe-Asn-Ala-Phe-DPro]) [ZMK 3-18]
